Measured values taken from the Immune Epitope Database (IEDB).
Each block holds one sequence with its values, some of them ahead of it.

How the values were obtained:
Test in all cases: IEDB peptide-MHC binding, purified MHC/competitive/radioactivity; filed as Kd, often an IC50 or EC50 that approximates it; ≥ and ≤ were set here for values at or beyond the usual limits of such assays
HLA-B*18:01 = target: HLA-B*18:01
HLA-B*40:01 = target: HLA-B*40:01
HLA-B*40:02 = target: HLA-B*40:02
HLA-B*44:02 = target: HLA-B*44:02
HLA-B*44:03 = target: HLA-B*44:03
HLA-B*45:01 = target: HLA-B*45:01
HLA-A*68:02 = target: HLA-A*68:02
HLA-A*02:06 = target: HLA-A*02:06
HLA-A*02:01 = target: HLA-A*02:01
HLA-A*02:02 = target: HLA-A*02:02
HLA-A*02:03 = target: HLA-A*02:03
HLA-A*26:01 = conditions: source organism: Dengue virus 3 Martinique/1243/1999
[1] = source organism: Mammarenavirus lassaense
[2] = source organism: SARS coronavirus Tor2
[3] = source organism: Mammarenavirus juninense
[4] = source organism: Lymphocytic choriomeningitis virus (strain Armstrong)
[5] = source organism: Dengue virus 3 Martinique/1243/1999
[6] = source organism: Mammarenavirus tacaribeense
[7] = source organism: Dengue virus 1 Brazil/97-11/1997
[8] = source organism: Mammarenavirus brazilense
[9] = source organism: Trypanosoma cruzi
[10] = source organism: Mammarenavirus guanaritoense
[11] = source organism: Lassa virus Josiah

Sequence: SEAQMSIQLI
- Kd (HLA-B*18:01; [1]): 13900 nM
- Kd (HLA-B*40:01; [1]): 1800 nM
- Kd (HLA-B*40:02; [1]): 936 nM
- Kd (HLA-B*44:02; [1]): 30.4 nM
- Kd (HLA-B*44:03; [1]): 235 nM
- Kd (HLA-B*45:01; [1]): 997 nM

Sequence: MEKLKALVA
- Kd (HLA-B*18:01; [2]): 5490 nM
- Kd (HLA-B*40:01; [2]): 152 nM
- Kd (HLA-B*40:02; [2]): 176 nM
- Kd (HLA-B*44:02; [2]): 568 nM
- Kd (HLA-B*44:03; [2]): 277 nM
- Kd (HLA-B*45:01; [2]): 24.1 nM

Sequence: PELELNVDAM
- Kd (HLA-B*18:01; [3]): 367 nM
- Kd (HLA-B*40:01; [3]): ≥ 69500 nM
- Kd (HLA-B*40:02; [3]): 796 nM
- Kd (HLA-B*44:02; [3]): ≥ 70200 nM
- Kd (HLA-B*44:03; [3]): ≥ 70100 nM
- Kd (HLA-B*45:01; [3]): ≥ 70000 nM

Sequence: SENDWFSCM
- Kd (HLA-B*18:01; [4]): 185 nM
- Kd (HLA-B*40:01; [4]): 1400 nM
- Kd (HLA-B*40:02; [4]): 164 nM
- Kd (HLA-B*44:02; [4]): 21.1 nM
- Kd (HLA-B*44:03; [4]): 22.2 nM
- Kd (HLA-B*45:01; [4]): 117 nM

Sequence: CSAVPVHWV
- Kd (HLA-A*68:02; [5]): 11.1 nM

Sequence: AEFKSRFFVM
- Kd (HLA-B*18:01; [6]): 37.2 nM
- Kd (HLA-B*40:01; [6]): 41.6 nM
- Kd (HLA-B*40:02; [6]): 3.57 nM
- Kd (HLA-B*44:02; [6]): 192 nM
- Kd (HLA-B*44:03; [6]): 87.2 nM
- Kd (HLA-B*45:01; [6]): 290 nM

Sequence: HDFGIPTPS
- Kd (HLA-B*18:01; [1]): 18200 nM
- Kd (HLA-B*40:01; [1]): 13700 nM
- Kd (HLA-B*40:02; [1]): 76.6 nM
- Kd (HLA-B*44:02; [1]): ≥ 67100 nM
- Kd (HLA-B*44:03; [1]): ≥ 78100 nM
- Kd (HLA-B*45:01; [1]): 1460 nM

Sequence: LTMKEKSWLV
- Kd (HLA-A*02:06; [7]): 73.8 nM
- Kd (HLA-A*68:02; [7]): 250 nM

Sequence: EEVPNIIHEA
- Kd (HLA-B*18:01; [8]): 12400 nM
- Kd (HLA-B*40:01; [8]): ≥ 20400 nM
- Kd (HLA-B*40:02; [8]): 790 nM
- Kd (HLA-B*44:02; [8]): ≥ 26900 nM
- Kd (HLA-B*44:03; [8]): 16000 nM
- Kd (HLA-B*45:01; [8]): 269 nM

Sequence: TSIGLICVIA
- Kd (HLA-A*68:02; [5]): 35.5 nM

Sequence: PDYKRPGVS
- Kd (HLA-B*18:01; [1]): ≥ 77500 nM
- Kd (HLA-B*40:01; [1]): ≥ 33800 nM
- Kd (HLA-B*40:02; [1]): 17600 nM
- Kd (HLA-B*44:02; [1]): ≥ 77900 nM
- Kd (HLA-B*44:03; [1]): ≥ 54300 nM
- Kd (HLA-B*45:01; [1]): ≥ 77700 nM

Sequence: RELYLNSSNV
- Kd (HLA-B*18:01; [2]): ≥ 70500 nM
- Kd (HLA-B*40:01; [2]): 184 nM
- Kd (HLA-B*40:02; [2]): 19.2 nM
- Kd (HLA-B*44:02; [2]): 2160 nM
- Kd (HLA-B*44:03; [2]): 1070 nM
- Kd (HLA-B*45:01; [2]): 95.5 nM

Sequence: DVSRPTTVV
- Kd (HLA-A*02:01; [9]): ≥ 35900 nM
- Kd (HLA-A*02:02; [9]): 16300 nM
- Kd (HLA-A*02:03; [9]): ≥ 38100 nM
- Kd (HLA-A*02:06; [9]): 12800 nM
- Kd (HLA-A*68:02; [9]): 37.7 nM

Sequence: WVSGVSGNI
- Kd (HLA-A*68:02; source organism: Dengue virus 4 Philippines/H241/1956): 10.1 nM

Sequence: GEQVDLGPVL
- Kd (HLA-B*18:01; [10]): 12100 nM
- Kd (HLA-B*40:01; [10]): 9030 nM
- Kd (HLA-B*40:02; [10]): 52.6 nM
- Kd (HLA-B*44:02; [10]): ≥ 32700 nM
- Kd (HLA-B*44:03; [10]): ≥ 43500 nM
- Kd (HLA-B*45:01; [10]): 1900 nM

Sequence: GEILLLEWLA
- Kd (HLA-B*18:01; [2]): 4670 nM
- Kd (HLA-B*40:01; [2]): 20.3 nM
- Kd (HLA-B*40:02; [2]): 16400 nM
- Kd (HLA-B*44:02; [2]): 610 nM
- Kd (HLA-B*44:03; [2]): 110 nM
- Kd (HLA-B*45:01; [2]): 17.2 nM

Sequence: EELSTLYEAL
- Kd (HLA-B*18:01; [8]): 371 nM
- Kd (HLA-B*40:01; [8]): 1260 nM
- Kd (HLA-B*40:02; [8]): 121 nM
- Kd (HLA-B*44:02; [8]): 1890 nM
- Kd (HLA-B*44:03; [8]): 595 nM
- Kd (HLA-B*45:01; [8]): 2080 nM

Sequence: TEVMPVSMA
- Kd (HLA-B*18:01; [2]): 11100 nM
- Kd (HLA-B*40:01; [2]): 15400 nM
- Kd (HLA-B*40:02; [2]): 79.7 nM
- Kd (HLA-B*44:02; [2]): 6840 nM
- Kd (HLA-B*44:03; [2]): 3850 nM
- Kd (HLA-B*45:01; [2]): 182 nM

Sequence: RLLPSLLLLL
- Kd (HLA-A*02:02; [9]): 0.28 nM
- Kd (HLA-A*02:03; [9]): 0.915 nM
- Kd (HLA-A*02:06; [9]): 0.585 nM
- Kd (HLA-A*68:02; [9]): 7220 nM

Sequence: YLISIFLHLV
- Kd (HLA-A*02:02; [11]): 2.73 nM
- Kd (HLA-A*02:03; [11]): 1.72 nM
- Kd (HLA-A*02:06; [11]): 8.6 nM
- Kd (HLA-A*68:02; [11]): 167 nM

Sequence: MTTIGIVLL
- Kd (HLA-A*68:02; source organism: Dengue virus 2 Peru/IQT2913/1996): 50.1 nM

Sequence: NEYTGNYQCG
- Kd (HLA-B*18:01; [2]): ≥ 33400 nM
- Kd (HLA-B*40:01; [2]): ≥ 69600 nM
- Kd (HLA-B*40:02; [2]): ≥ 28500 nM
- Kd (HLA-B*44:02; [2]): ≥ 70200 nM
- Kd (HLA-B*44:03; [2]): 7520 nM
- Kd (HLA-B*45:01; [2]): 1790 nM

Sequence: ETYQLWTAL
- Kd (HLA-A*26:01): 181 nM
- Kd (HLA-A*68:02; [5]): 3.39 nM

- Kd (HLA-A*02:01; source organism: Homo sapiens): 39.8 nM
- Kd (HLA-A*02:02; source organism: Homo sapiens): 70 nM
- Kd (HLA-A*02:03; source organism: Homo sapiens): 2380 nM
- Kd (HLA-A*68:02; source organism: Homo sapiens): ≥ 52500 nM
Sequence: SMEAEMIQL
